This note sets out measurements from the DeepSol protein solubility set.

The nature of the data set: soluble on expression in E. coli; label from the status in PepcDB or PDB records.
On to “GMHSNINTLIANHRAGHALDQAFYTDAEVFQTDLQEIFYKEWLFAIPACELDKPGSYVTHQVGNYNVIIVRGADNVIRAFHNACRHRGSVICKAKKGNNPKLVCPYHQWTYELDGRLLWARDMGPDFEPSRHGLKTVHCRELAGLIYICLADEAPDFERFAEVARPYLEVHDLSNAKVAHESSIVERGNWKLVWENNRECYHCGGNHPALCRTFPDDPSVTGIEGGETPSNLQAHFDRCEQAGMPSGFHLSGDGQFRVARMPLKEGAESYTMDGKTAVRRWLGRAAFADAGSLLKFHYPTTWNHFLSDHSIVFRVTPISPTETEVTTKWLVHKDAVEGVDYDLQRLTEVWIATNDEDREVVEFNQMGINSPAYEPGPYSPTQESGVLQFVEWYLSTLKRNSGPHAVAAE”, for which the “soluble on expression in E. coli” value is given as “soluble”.
On to “GMKIDGETRSARKDREIIQAATAAFISKGYDGTSMEEIATKAGASKQTVYKHFTDKETLFGEVVLSTASQVNDIIESVTTLLSEAIFMEGGLQQLARRLIAVLMDEELLKLRRLIIANADRMPQLGRAWYEKGFERMLASTASCFQKLTNRGLIQTGDPYLAASHLFGMLLWIPMNEAMFTGSNRRSKAELERHADASVEAFLAVYGVQPK”, for which the “soluble on expression in E. coli” value was “soluble”.
In the case of “GMKQPNYYQDVKQFHQTFHHPGADQPTAIPLDRGVKRATWTAEEAVVEFLHQSSQNETEFLAAIETFKAGLDQAVKKSLKETYPVTEVERLVGQGDALTDALYFIMGSFVEAGLEPGPLFEIVQQANMAKLGPDGQPIFRESDQKVMKPDGWLPPEPQLEAEVVRQMKEKA”, the “soluble on expression in E. coli” value is reported as “soluble”.
Take “GMLTGKHVVIIGGDARQLEIIRKLSTFDAKISLVGFDQLDDGFIGVTKMRIDEVDWNTVDAILLPISGTNEAGKVDTIFSNESIVLTEEMIEKTPNHCVVYSGISNTYLNQCMKKTNRTLVKLMERDDIAIYNSIPTAEGTIMMAIQHTDFTIHGANVAVLGLGRVGMSVARKFAALGAKVKVGARESDLLARIAEMGMEPFHISKAAQELRDVDVCINTIPALVVTANVLAEMPSHTFVIDLASKPGGTDFRYAEKRGIKALLVPGLPGIVAPKTAGRILADVLVKLLAEPS”: the “soluble on expression in E. coli” value was “soluble”.
Turning to “GMQIESFKSLLPKYKCIFFDAFGVLKTYNGLLPGIENTFDYLKAQGQDYYIVTNDASRSPEQLADSYHKLGLFSITADKIISSGMITKEYIDLKVDGGIVAYLGTANSANYLVSDGIKMLPVSAIDDSNIGEVNALVLLDDEGFNWFHDLNKTVNLLRKRTIPAIVANTDNTYPLTKTDVAIAIGGVATMIESILGRRFIRFGKPDSQMFMFAYDMLRQKMEISKREILMVGDTLHTDILGGNKFGLDTALVLTGNTRIDDAETKIKSTGIVPTHICESAVIEL”, the “soluble on expression in E. coli” value is given as “soluble”.
Regarding “GMQTINATEIRNNFSYYIDTVVRDKPIAVKRNRDVLLFFSEQIIKDLLQDLKIHAELSKEDGIIIGTIDGFDLVVSGESEQEVIQKLAEDLLEYAQDYMNDFKLFYNAPNRKTHYPYILKVLLSSNIDEVKGYIYAEMV”, the “soluble on expression in E. coli” value is recorded as “soluble”.
With “GMSAKDVFHQVVKIALEKDGWQITNDPLTISVGGVNLSIDLGAEKLIAAEREGEKIAVEVKSFLERSSAISEFHTALGQFINYRGALRRRQPERVLYLAVPLTTYKTFFQLDFPKEMIAENQVKMLIYDVEQEVIFQWIN”, the “soluble on expression in E. coli” value is on record as “soluble”.
Regarding “GMSDEQHDSVWPPPGLDFSKPTIARVYDALLGGKDNFEADRALADYACKHIPGLKESAIENRKVLVRGVRFLAGEAGISQFLDLGSGLPTVQNTHEVAQSVNPDARVVYVDIDPMVLTHGRALLAKDPNTAVFTADVRDPEYILNHPDVRRMIDFSRPAAIMLVGMLHYLSPDVVDRVVGAYRDALAPGSYLFMTSLVDTGLPAQQKLARITRENLGEGWARTPEEIERQFGDFELVEPGVVYTALWRPDEPVDPDNLSPGEQLGMAGIGRKKA”, the “soluble on expression in E. coli” value is recorded as “soluble”.
Next, “GMSSDVQKGDNLETPGARDLLLQTASNIMREGDVVDISLSELSLRSGLNSALVKYYFGNKAGLLKALLDRDMENIVKSVDALLAKDDMSPEAKLRRHISKCIDTYYDYPYLNRLLMRLVRDSDEAEAKRIADQYLLPLHRAYNRFIGEGVKAGVFRPINPQLFYFTVTGAADRFFSARLVLKHCFDQDTLTEQLRDSYREHTVDFIMAGILAH”: “soluble”; “GMSSNLHGIAIGIERSQDDFYLAFKAVGKLTHEDYEQMTPLLESALAGIKTPEIVALIDITELDGLSLHAAWDDLKLGLKHGKEFKRVAIIGQGELQEWATRVANWFTPGEFKFFEDKRDALDWLC”: “soluble”; “GMSVAAEVAQVAQSAIDDFNAAYGLCLDDDRLEQWPTLFVDDCLYQVIARENVDNGLPAAVMYCDSKGMLADRVVALRKANVFPEHFNRHLIGRAVITGVEGDQVSAEASYVVFQTRNDGETRIYNAGKYVDRFDLSGGTVRLKSRTCIYDTLRIATLLATPI”: “soluble”.
Turning to “GMSVVDPSLIERIIRDDVRAMGAYHVPDSHGLVKLDAMENPYRLPPALRSELAARLGEVALNRYPVPSSEALRAKLKEVMQVPAGMEVLLGNGSDEIISMLALAAARPGAKVMAPVPGFVMYAMSAQFAGLEFVGVPLRADFTLDRGAMLAAMAEHQPAIVYLAYPNNPTGNLFDAADMEAIVRAAQGSVCRSLVVVDEAYQPFAQESWMSRLTDFGNLLVMRTVSKLGLAGIRLGYVAGDPQWLEQLDKVRPPYNVNVLTEATALFALEHVAVLDEQAAQLRAERSRVAEGMAAHGGVTVFPSAANFLLARVPDAAQTFDRLLARKVLIKNVSKMHPLLANCLRVTVSTPEENAQFLEAFAASLQD”, the “soluble on expression in E. coli” value is “soluble”.
On to “GMSYQNANYSAFYVSEPFSESNLGANSTHDFVYYNMLRMWKGEDNSFPFNDAHDKTYNVRDGSDWEKTLKPRLHTRLDNSKNIILFLSSITANSRALREEMNYGIGTKGLPVIVIYPDYDKKSDIVDSNGNFKKQIKDLWDKLPAFRDNMSSVATLHIPCTKSVIISALNNEDFMVNTMADAEKYYYKP”, for which the “soluble on expression in E. coli” value is recorded as “soluble”.
On to “GMTESDRDYIQSIERGFAVLLAFDAQRPNPTLAELATEAGLSRPAVRRILLTLQKLGYVAGSGGRWSLTPRVLSIGQHYSESHALIEAAMPRLLEVAEKTQESASLGVLDGADVVYAARVPVRRIMSINVSVGTRVPAYATSMGRALLAWAPADVVERVVAESTFQKLGPETIGTAAELERELAKVREQGFALTSEELEKGLISLAAPVHDAGGTVVGVVACSTSSARNTPAQFREQAVPCVLAAAAALSADMGFAG”, for which the “soluble on expression in E. coli” value is reported as “soluble”.
On to “GMTRQRIAIDMDEVLADTLGAVVKAVNERADLNIKMESLNGKKLKHMIPEHEGLVMDILKEPGFFRNLDVMPHAQEVVKQLNEHYDIYIATAAMDVPTSFHDKYEWLLEYFPFLDPQHFVFCGRKNIILADYLIDDNPKQLEIFEGKSIMFTASHNVYEHRFERVSGWRDVKNYFNSIEK”, for which the “soluble on expression in E. coli” value is on record as “soluble”.
For the sequence “GMTSNGQQGKPNLPEKDNLPRELGTQRINSPIARMGMFGAKTTGDTSGYGRLRVYRHVPAAAQRPYSDPSDPRTAYFDEVADALERSLKEIGTPYDTAISRVVVDRGEITFHVQREHLLDVATRLRDDPALRFELCLGVTGVHYPEDEGNELHAVYALRSITHNYEIRLEVSCPDSDPHIPSIVSVYPTNDWHEREAWDFFGIIFDGHPALTR”, the “soluble on expression in E. coli” value was “soluble”.
As for “GMTTSEHIAALTALVETYVMAMTRGDRPALERIFFGKASEVGHYEGELLWNSRDAFIAMCEDAADAETDPFWAISSVSVQGDIAMLHVENDWAGMRFDDFLTVLLHEGSWRIVSKVYRIR”, the “soluble on expression in E. coli” value is reported as “soluble”.
For “GMWSYDKITDYLMNNLGEKRYKHSLGVMDTAVRLAGIYNEDTEKARIAGLVHDCAKKLPGEKIIEICTNEGYELGDEDIRNSYLLHGLAGRILAKKVIGIDDEDVLNAIEFHTTGRPNMSLLEKIIYIADYIEPGREFKGVDELRKAADEDLNKALLMSFDNTIKFVIDKGGFLHHNTIEARNYLISRKG”, the “soluble on expression in E. coli” value was “soluble”.
Regarding “GNLSFLATSDGASLAYRLDGAAEKPLLALSNSIGTTLHMWDAQLPALTRHFRVLRYDARGHGASSVPPGPYTLARLGEDVLELLDALEVRRAHFLGLSLGGIVGQWLALHAPQRIERLVLANTSAWLGPAAQWDERIAAVLQAEDMSETAAGFLGNWFPPALLERAEPVVERFRAMLMATNRHGLAGSFAAVRDTDLRAQLARIERPTLVIAGAYDTVTAASHGELIAASIAGARLVTLPAVHLSNVEFPQAFEGAVLSFLGA”, the “soluble on expression in E. coli” value is on record as “not soluble”.
On to “GPGSGPVFVQEPSHVMFPLDSEEKKVKLSCEVKGNPKPHIRWKLNGTDVDIGMDFRYSVVDGSLLINNPNKTQDAGTYQCIATNSFGTIVSREAKLQFAYLENFKTRTRSTVSVRRGQGMVLLCGPPPHSGELSYAWIFNEYPSYQDNRRFVSQETGNLYIAKVEKSDVGNYTCVVTNTVTNHKVLGPPTPLILRNDGVMGEYEPKIEVQFPETVPAEKGTTVKLECFALGNPVPTILWRRADGKPIARKARRHKSNGILEIPNFQQEDAGSYECVAENSRGKNVAKGQLTFYAQPNWVQIINDIHVAMEESVFWECKANGRPKPTYRWLKNGDPLLTRDRIQIEQGTLNITIVNLSDAGMYQCVAENKHGVIFSSAELSVIAE”, for which the “soluble on expression in E. coli” value was “soluble”.
Turning to “GPGSMAVQPGKVLAEQFSRQGIQYEESTDVLWCSLCTKADSLEIISRATVEDVLEHCRLRQHLLLMEKETVKEHYCPVEINGRSFLLDHNCVYPSTMFGKGRMLLDDTLGCVMTEDVCGGVKLLPRHKYTVVEIVIPPAGTPIPKDPSYYVERPVRSRKCHEKFDSWIQVHNSSVEGESALMKRRRIAFSQLNM”, the “soluble on expression in E. coli” value was “not soluble”.
For “GPGSMDFVPTVAVIRANPVEGVRYAYTSTVSDNRYDSFVEDAVMQYSGNVNEADGSDRASPRFSGRSVVNLQRAILQCGDIRVSDKQDAEPVGVWRCLAGAILAACCFLRSYSTCPSESFDECGAEVCDAFVPAGVAMIIFSGVCDTRPLSFSEECPFSAAVTAATRLRTAVHVFGPAVVSSALGLRLQALANTTGGIWAPQFALSHVGYLMELAVRRNGQREMDSATNSRRQRELLVERYVVPPACLPQDPAQTGVASGENVSYLAWLCSACLATLVRHPHEEVGAIRMCPYCAASK”, the “soluble on expression in E. coli” value is “not soluble”.
Take “GPGSMGTMKDKNKCTFRYFEVLPIDHEPEYQNGYVCDICFMEYSEGPFFHCSKSGKDVCLRCGGKMGLTPFTALVSKVMRPTVYWSESESSRAIALCYQIHRDILGCHFIDGANLLISTRDDLPSYFIDSNSCIEKSIVLSRSDIERRFPWAGEVAEVMGVNAVSFHETSACNDQSRLCFLSSFRVEGAFIEFRFSDGFCELVHCENGTIVAIRDSAVLSCFLMGLPVRWGRSLPKAASSVLEWYLKGGQR”: the “soluble on expression in E. coli” value is listed as “not soluble”.
Regarding “GPGSMHEDGQFLRAFLLRVLANDMQRMLATNTCATYFRNIPLEPEYDASGNRTNTPENVVMEKRLRVMDDISKLLRTYVERAEYAANKSKDINRRIYFTAEQIETGDYGALIGPRGLVHQQLEKETNCHIVLVGRGITNPLKDTNPNAASMALEDPHVRITATTEEDLQTAAERIEWILSDEPEAVEFRENNRRRMAQVDGRYDPRTWMTAAEKRKKAAAEKAAAAGGAAAGEDETKAEKGRKREREEAPVEEEDTELNEFLEDL”, the “soluble on expression in E. coli” value was “soluble”.
Regarding “GPGSMINWCEGCSNRNNNTQPELVLGNETFVTHGVAAPDKGSKYPLGGPFRLRESRTGNYITDKELFQDHWTLLYFGFSKCAEVCPSTLRFITDVMKACDEKLAGDKNLSTEAARLQAVFLSVDSRRDTPEVLEGFVSKYDPRVRGLTGTSKEIEQAARAWRVYYSSIDETDEEKSAREAKGVPMVGADDDTYQLDHSSAIYLVGVDGKLKDFFFKEMGVADAVGRLEVHLQDVYGFKDTRG”, the “soluble on expression in E. coli” value is “not soluble”.
